This note sets out measurements from paper PMC11992055, “Identification of RING E3 pseudoligases in the TRIM protein family” (Nature Communications, 2025).

The series concerns the molecule itself. Briefly: SEC-MALS; SEC-MALLS; Superdex 200 Increase 10/300; 120 µl sample at 1–6 mg/ml; 50 mM HEPES pH 7.5, 150 mM NaCl, 0.5 mM TCEP, 3 mM NaN3; 0.5 ml/min. A general note: SEC sorts molecules by how far they enter the pores of the column.

B1: TRIM6 RING domain (residues 1-87), wild type (domain or fragment, human, UniProt Q9C030 1-87, looked up)
chain: MTSPVLVDIREEVTCPICLELLTEPLSIDCGHSFCQACITPNGRESVIGQEGERSCPVCQTSYQPGNLRPNRHLANIVRRLREVVLG
notes: TRIM6, human, RING domain, residues 1-87; Forms dimers in solution by SEC-MALLS; The His6 tag is HRV 3C cleavable; also called TRIM6 RING WT; source: E. coli BL21, purified (Ni-NTA, size-exclusion chromatography)
What is called stoichiometry N is a count of units in the complex or per binding partner. Consider B1, for which the “stoichiometry N” value stood at 2.

B2: TRIM22 RING domain (residues 1-87), wild type (domain or fragment, human, UniProt Q8IYM9 1-87, looked up)
chain: MDFSVKVDIEKEVTCPICLELLTEPLSLDCGHSFCQACITAKIKESVIISRGESSCPVCQTRFQPGNLRPNRHLANIVERVKEVKMS
notes: TRIM22, human, RING domain, residues 1-87; Monomer-dimer equilibrium by SEC-MALLS; The His6 tag is HRV 3C cleavable; also called TRIM22 RING WT; source: E. coli BL21, purified (Ni-NTA, size-exclusion chromatography)
Take B2: the “stoichiometry N” value stood at 2.
